Test results: patent US20130230533A1 (Regeneron, published 2013)

T1: Dimeric monkey CD48-mFc (monkey)
T1 construct: Soluble monkey CD48 with a C-terminal Fc fusion [mFc]; the whole entry is the construct
T1 chain: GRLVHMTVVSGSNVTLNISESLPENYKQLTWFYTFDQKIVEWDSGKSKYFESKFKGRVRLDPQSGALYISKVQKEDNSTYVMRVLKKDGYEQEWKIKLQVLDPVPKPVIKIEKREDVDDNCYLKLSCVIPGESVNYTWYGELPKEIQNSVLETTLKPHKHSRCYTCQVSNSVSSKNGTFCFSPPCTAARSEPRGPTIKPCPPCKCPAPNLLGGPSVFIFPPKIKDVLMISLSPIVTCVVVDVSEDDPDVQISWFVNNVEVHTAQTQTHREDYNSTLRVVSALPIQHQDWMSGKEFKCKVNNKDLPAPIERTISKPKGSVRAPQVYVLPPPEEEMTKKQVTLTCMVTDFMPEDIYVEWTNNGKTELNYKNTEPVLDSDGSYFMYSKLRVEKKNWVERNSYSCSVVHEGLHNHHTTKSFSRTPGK

T2: Monomeric monkey CD48-mmH (monkey)
T2 construct: Soluble monkey CD48 with a myc-myc-hexa-histidine C-terminal tag; the whole entry is the construct; also called mfCD48-mmH
T2 chain: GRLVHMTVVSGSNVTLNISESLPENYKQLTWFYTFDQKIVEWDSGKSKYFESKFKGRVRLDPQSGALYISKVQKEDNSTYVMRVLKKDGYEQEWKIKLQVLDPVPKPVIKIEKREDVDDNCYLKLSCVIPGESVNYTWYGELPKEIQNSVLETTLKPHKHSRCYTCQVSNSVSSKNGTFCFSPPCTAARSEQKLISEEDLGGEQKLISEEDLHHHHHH

T3: Dimeric human CD48-mFc (human)
T3 construct: the whole entry is the construct; also called hCD48-mFc
T3 chain: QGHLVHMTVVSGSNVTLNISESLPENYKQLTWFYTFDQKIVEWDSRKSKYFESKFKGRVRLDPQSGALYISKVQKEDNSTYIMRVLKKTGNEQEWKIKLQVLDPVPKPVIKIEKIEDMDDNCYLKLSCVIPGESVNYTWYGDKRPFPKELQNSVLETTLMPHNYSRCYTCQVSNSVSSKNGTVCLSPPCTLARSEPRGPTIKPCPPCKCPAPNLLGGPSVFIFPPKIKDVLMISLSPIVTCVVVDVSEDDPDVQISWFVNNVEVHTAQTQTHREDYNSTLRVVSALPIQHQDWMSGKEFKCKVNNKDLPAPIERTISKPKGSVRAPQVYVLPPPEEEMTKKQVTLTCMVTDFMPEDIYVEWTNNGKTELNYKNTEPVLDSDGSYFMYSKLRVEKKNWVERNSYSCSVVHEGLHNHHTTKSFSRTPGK

T4: Monomeric human CD48-mmH (human)
T4 chain: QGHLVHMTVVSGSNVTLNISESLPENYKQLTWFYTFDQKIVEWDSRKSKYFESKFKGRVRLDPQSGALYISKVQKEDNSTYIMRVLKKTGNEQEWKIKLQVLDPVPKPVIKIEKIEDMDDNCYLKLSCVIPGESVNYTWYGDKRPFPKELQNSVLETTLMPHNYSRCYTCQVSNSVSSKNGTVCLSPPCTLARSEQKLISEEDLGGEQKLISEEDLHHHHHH


Legend:
[1] = biological target: T1, Dimeric monkey CD48-mFc; experiment: SPR (Biacore), antibody captured by anti-Fc, CD48 in solution, 25 C
Procedure: (§1) Measurements were conducted on a T100-2 BIACORE™ instrument (Biacore Life Sciences division of GE Healthcare, Piscataway, N.J.). Antibodies (either with mouse Fc [designated “H2M” or “H3M”] or human IgG4 Fc [designated “H4H”]) were captured through an anti-Fc chip surface, and CD48 was flowed over the surface either in a monomeric (soluble CD48 expressed with a myc-myc-hexa-histidine C-terminal tag [mmH]) or dimeric (soluble CD48 expressed with a C-terminal Fc fusion [mFc]) format.
(§2) The soluble CD48 was applied to the flow cell in separate injections at different concentrations, and kinetic association (kₐ) and dissociation (kd) rate constants were determined by fits to the kinetic binding data using Biacore software. Binding dissociation equilibrium constants and dissociation half-times were calculated from the kinetic rate constants as: KD=kd/kₐ; t_{1/2}=(ln 2/kd) (units: ka=M⁻¹*s⁻¹; kd=s⁻¹; KD=M; T½=min) (Tables 3-6).

[2] = biological target: T2, Monomeric monkey CD48-mmH; experiment: as above
Procedure: as §1, §2

[3] = biological target: T3, Dimeric human CD48-mFc; experiment: SPR (Biacore), antibody captured by anti-Fc, CD48 in solution, 37 C
Procedure: as §1, §2

[4] = biological target: T1, Dimeric monkey CD48-mFc; experiment: as above
Procedure: as §1, §2

[5] = biological target: T4, Monomeric human CD48-mmH; experiment: as above
Procedure: as §1, §2

[6] = biological target: T2, Monomeric monkey CD48-mmH; experiment: as above
Procedure: as §1, §2

Binder	Kd [1]	T½ [1]	koff [1]	kon [1]	Kd [2]	T½ [2]	koff [2]	kon [2]	Kd [3]	T½ [3]	koff [3]	kon [3]	Kd [4]	T½ [4]	koff [4]	kon [4]	Kd [5]	T½ [5]	koff [5]	kon [5]	other results
H4H1772P (antibody, human IgG4, V domains shown, Human IgG4 Fc (H4H)) VH: EVQLVESGGGLVQPGGSLRLSCAASGFTFSSYWMSWVRQAPGKGLEWVANIMRDGSEKYYVDSVKGRFTISRDNAKNSLYLQMNSLRGEDTAVYYCARERGFYTNYGNWFDPWGQGTLVTVSS VL: DIVMTQSPLSLTVTPGESASISCRSSQSLLHSYGYNSLDWYLQKPGQSPQFLIYLVSNRASGVPDRFSGSGSGTDFTLKISRVEAEDVGVYYCMQVLQTPYTFGQGTKLEIK	96.8 pM	3.83 h	5.02e-05 s⁻¹	519000 M⁻¹ s⁻¹	1100 pM	0.383 h	0.000508 s⁻¹	461000 M⁻¹ s⁻¹	65 pM	3.22 h	5.98e-05 s⁻¹	920000 M⁻¹ s⁻¹	94.7 pM	2.63 h	7.31e-05 s⁻¹	772000 M⁻¹ s⁻¹	5940 pM	0.183 h	0.00102 s⁻¹	172000 M⁻¹ s⁻¹	Kd [6]: 4530 pM; T½ [6]: 0.133 h; koff [6]: 0.00145 s⁻¹; kon [6]: 320000 M⁻¹ s⁻¹
H4H1770P (antibody, human IgG4, V domains shown, Human IgG4 Fc (H4H)) VH: QVQLVQSGAEVKKPGAAVKVSCKASGYTFTAYGISWVRQAPGQGLEWMGWISAYDGDTNNAQKFQGRVTMTTDTSSSTAYMELRSLGSDDTAVYYCARDRYSSSSGYFDYWGQGTLVTVSS VL: DIQMTQSPSSVSASVGDRVTITCRASQDISSWLAWSQQKPGKAPKALIYAASSLQSGVPSRFSGSGSGTDFTLTISSLQPEDFATYYCQQANSFPYTFGQGTKLEIK	131 pM	1.72 h	0.000113 s⁻¹	858000 M⁻¹ s⁻¹	298 pM	0.9 h	0.000215 s⁻¹	720000 M⁻¹ s⁻¹	13.8 pM	6.25 h	3.08e-05 s⁻¹	2.23e+06 M⁻¹ s⁻¹	91.1 pM	1.38 h	0.000139 s⁻¹	1.53e+06 M⁻¹ s⁻¹	662 pM	0.367 h	0.000533 s⁻¹	804000 M⁻¹ s⁻¹	Kd [6]: 440 pM; T½ [6]: 1.1 h; koff [6]: 0.000174 s⁻¹; kon [6]: 396000 M⁻¹ s⁻¹
H4H1774P (antibody, human IgG4, V domains shown, Human IgG4 Fc (H4H)) VH: QVQLVESGGGVVQPGRSLRLSCAASGFTFSNYGMHWVRQAPGKGLEWVAVIWYDESSKYYTDSVKGRFTISRDNSQNTLYLQMTSLRAEDTAVYYCARDRWTYSHYFEYWGQGTLVTVSS VL: DIQMTQSPSSVSASVGDRVTITCRASQGISSWVAWYQQKPGKAPKLLIYAASSLQSGVPSRFSGSGSGTDFTLTISSLQPEDFATYYCQQANSFPRTFGQGTKVEIK	52.5 pM	9.3 h	2.07e-05 s⁻¹	395000 M⁻¹ s⁻¹	289 pM	2.52 h	7.63e-05 s⁻¹	263000 M⁻¹ s⁻¹	43.9 pM	12.1 h	1.6e-05 s⁻¹	363000 M⁻¹ s⁻¹	107 pM	3.57 h	5.4e-05 s⁻¹	508000 M⁻¹ s⁻¹	824 pM	1.8 h	0.000107 s⁻¹	130000 M⁻¹ s⁻¹	Kd [6]: 1360 pM; T½ [6]: 0.717 h; koff [6]: 0.000267 s⁻¹; kon [6]: 197000 M⁻¹ s⁻¹
H4H1764N (antibody, V domains shown, Human IgG4 Fc (H4H)) VH: QVQLVESGGGVVQPGRSLRLSCAASGFTFSDYGMHWVRQAPGKGLEWVAVIWNDGSNKNYADSVKGRFSISSDSSKNTLYLHMNSLRAEDTAVYYCARSLYSTSPWYFDLWGRGTLVTVSS VL: not shown	525 pM	1.47 h	0.000132 s⁻¹	251000 M⁻¹ s⁻¹	2340 pM	0.933 h	0.000206 s⁻¹	87700 M⁻¹ s⁻¹	330 pM	1.93 h	9.94e-05 s⁻¹	301000 M⁻¹ s⁻¹	7400 pM	0.133 h	0.00142 s⁻¹	192000 M⁻¹ s⁻¹	109000 pM	0.0167 h	0.0114 s⁻¹	105000 M⁻¹ s⁻¹	Kd [6]: 2910 pM; T½ [6]: 0.317 h; koff [6]: 0.00062 s⁻¹; kon [6]: 213000 M⁻¹ s⁻¹
H4H1771P (antibody, human IgG4, V domains shown, Human IgG4 Fc (H4H)) VH: QVQLVQSGTEVKKPGASVKVSCKVSGYTLIDLSIHWVRQAPGEGLEWMGGFDPEESETIYAQKFQGRVTMTEDTSTDTAYMELSSLRSEDTAVYYCVTEPIFGILIHESWGQGTLVTVSS VL: DIVMTQTPLSSPVTLGQPASISCRSSHSPVHSNGHTYLSWLQQRPGQPPRILIYKISRRFSGVPDRFSGSGAGTDFTLKISRVETEDVGIYYCMQASQFPWTFGQGTKVEIK	58.7 pM	3.5 h	5.51e-05 s⁻¹	939000 M⁻¹ s⁻¹	453 pM	0.4 h	0.000477 s⁻¹	1.05e+06 M⁻¹ s⁻¹	16.6 pM	4 h	4.81e-05 s⁻¹	2.89e+06 M⁻¹ s⁻¹	62.1 pM	1.88 h	0.000102 s⁻¹	1.64e+06 M⁻¹ s⁻¹	488 pM	0.35 h	0.000547 s⁻¹	1.12e+06 M⁻¹ s⁻¹	Kd [6]: 1340 pM; T½ [6]: 0.217 h; koff [6]: 0.000877 s⁻¹; kon [6]: 657000 M⁻¹ s⁻¹
